# In patent US20230357429A1 (JANUX THERAPEUTICS, published 2023):
# Residue numbers refer to the chain shown, from its start. Names may count otherwise. Where no end group is shown, it is not given here.
# T1: Human TROP2 ECD (31-274 AA), biotinylated (human, UniProt P09758 31-274, biotinylated (site not stated))
# T1 construct: captured on neutravidin plates; also called TROP2-biotin; Trop2-biotin
# T1 sequence: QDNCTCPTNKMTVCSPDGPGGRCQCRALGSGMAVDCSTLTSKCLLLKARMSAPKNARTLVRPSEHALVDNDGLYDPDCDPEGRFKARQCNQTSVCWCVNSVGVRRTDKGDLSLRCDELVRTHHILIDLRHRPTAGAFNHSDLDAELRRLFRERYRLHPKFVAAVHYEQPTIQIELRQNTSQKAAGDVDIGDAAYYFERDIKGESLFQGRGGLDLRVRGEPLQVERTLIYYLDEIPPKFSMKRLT
# T2: Peptide-35 (cysteine pairing not given here; also: biotinylated, site not given here)
# T2 peptide: EDFCYWYQWPICSD
# T3: Peptide-40 (cysteine pairing not given here; also: biotinylated, site not given here)
# T3 peptide: VDFCYLYSWPICTK
# T4: Peptide-42 (cysteine pairing not given here; also: biotinylated, site not given here)
# T4 peptide: IDFCAMYHWPICDT
# T5: Peptide-8 (cysteine pairing not given here; also: biotinylated, site not given here)
# T5 peptide: VDFCGLYHWPICYQ
# T6: Peptide-41 (cysteine pairing not given here; also: biotinylated, site not given here)
# T6 peptide: VDFCGLYHWPICYQVY
# T7: Peptide-64 (cysteine pairing not given here; also: biotinylated, site not given here)
# T7 peptide: PDFCAVYRWPICYQ
# T8: Peptide-39 (cysteine pairing not given here; also: biotinylated, site not given here)
# T8 peptide: VDFCGLYHWPICYQVD
# T9: Peptide-32 (cysteine pairing not given here; also: biotinylated, site not given here)
# T9 peptide: PDFCYMYGWPICDS
# T10: Peptide-33 (cysteine pairing not given here; also: biotinylated, site not given here)
# T10 peptide: PDFCYMYNWPVCVT
# T11: Peptide-63 (cysteine pairing not given here; also: biotinylated, site not given here)
# T11 peptide: IDFCLIYNWPVCDT
# T12: Peptide-36 (cysteine pairing not given here; also: biotinylated, site not given here)
# T12 peptide: VDFCYQYGWPICSR
# T13: Peptide-62 (cysteine pairing not given here; also: biotinylated, site not given here)
# T13 peptide: IDFCAVYKWPVCQV
# T14: Peptide-38 (cysteine pairing not given here; also: biotinylated, site not given here)
# T14 peptide: VDFCSIYHWPVCYV
# T15: Peptide-25 (cysteine pairing not given here; also: biotinylated (site not given here))
# T15 peptide: VDFCKIYSWPVCHQ
# T16: Peptide-43 (cysteine pairing not given here; also: biotinylated, site not given here)
# T16 peptide: VDFCALYHWPICYQ
# T17: Peptide-3 (cysteine pairing not given here; also: biotinylated, site not given here)
# T17 peptide: IDFCMLYNWPICAG
# T18: Peptide-37 (cysteine pairing not given here; also: biotinylated, site not given here)
# T18 peptide: VDFCYLYNWPVCSK
# T19: Peptide-54 (cysteine pairing not given here; also: biotinylated, site not given here)
# T19 peptide: VDFCYRYSWPVCWA
# T20: Peptide-48 (cysteine pairing not given here; also: biotinylated, site not given here)
# T20 peptide: VDFCYMYKWPVCYP
# T21: Peptide-47 (cysteine pairing not given here; also: biotinylated, site not given here)
# T21 peptide: VDFCYQYGWPICSRLY
# T22: Peptide-50 (cysteine pairing not given here; also: biotinylated, site not given here)
# T22 peptide: VDFCAIYSWPICKI
# T23: Peptide-55 (cysteine pairing not given here; also: biotinylated, site not given here)
# T23 peptide: VDFCYKYNWPICSR
# T24: Peptide-56 (cysteine pairing not given here; also: biotinylated, site not given here)
# T24 peptide: VDFCYQYGWPICSRV
# T25: Peptide-49 (cysteine pairing not given here; also: biotinylated, site not given here)
# T25 peptide: IDFCLLYKWPVCEL
# T26: Peptide-45 (cysteine pairing not given here; also: biotinylated, site not given here)
# T26 peptide: VDFCYQYGWPICSRVD
# T27: Peptide-59 (cysteine pairing not given here; also: biotinylated, site not given here)
# T27 peptide: VDFCALYNWPVCAI
# B1: TBD-11 (HC R98A) (Fab, V domains shown)
# VH: QVQLQQSGSELKKPGASVKVSCKASGYTFTNYGMNWVKQAPGQGLKWMGWINTYTGEPTYTDDFKGRFAFSLDTSVSTAYLQISSLKADDTAVYFCAAGGFGSSYWYFDVWGQGSLVTVSS
# VL: DIQLTQSPSSLSASVGDRVSITCKASQDVSIAVAWYQQKPGKAPKLLIYSASYRYTGVPDRFSGSGSGTDFTLTISSLQPEDFAVYYCQQHYITPLTFGAGTKVEIKR
# notes: Fab; also called HC R98A mutant
# B2: TBD-17 (HC S104A) (Fab, V domains shown)
# VH: B1 VH with A98R, S104A
# VL: B1 VL
# notes: Fab; also called HC S104A mutant
# B3: TBD-21 (HC F108A) (Fab, V domains shown)
# VH: B1 VH with A98R, F108A
# VL: B1 VL
# notes: Fab; also called HC F108A mutant
# B4: TBD-6 (LC I93A) (Fab, V domains shown)
# VH: B1 VH with A98R
# VL: B1 VL with I93A
# notes: Fab; also called LC I93A mutant
# B5: TBD-1 wt (Fab, V domains shown)
# VH: B1 VH with A98R
# VL: B1 VL
# notes: Fab; the heavy chain entry is VH-CH1; also called wild-type anti-TROP2 Fab (hRS7); TROP2 Fab
# Biological target: T1, Human TROP2 ECD (31-274 AA), …
# Assay: ELISA, Fab on captured biotin-TROP2
row,Binder,EC50 [nM]
1,B1,3.4
2,B2,0.3
3,B3,4.2
4,B4,0.3

# Biological target: T2, Peptide-35
# Assay: ELISA, Fab on captured biotin-peptide
# Method: (§1) Binding was measured in a standard ELISA format. […] Bound TBDs were detected using a standard horse radish peroxidase conjugate secondary antibody. The ELISA signal was plotted versus the log-scale concentration of TBD. The concentrations of TBD required to observe half maximal binding signal (EC₅₀s) were calculated using Graphpad Prism software.
row,Binder,EC50 [nM]
1,B5,261
2,B2,215
3,B3,331
4,B4,131

# Biological target: T3, Peptide-40
# Assay: ELISA, Fab on captured biotin-peptide
# Method: as §1
row,Binder,EC50 [nM]
1,B5,39.7
2,B1,310
3,B2,27
4,B3,45.8
5,B4,30.4

# Biological target: T4, Peptide-42
# Assay: ELISA, Fab on captured biotin-peptide
# Method: as §1
row,Binder,EC50 [nM]
1,B5,28.5
2,B1,86.4
3,B2,5.5
4,B3,13.8
5,B4,5.7

# Biological target: T5, Peptide-8
# Assay: ELISA, Fab on captured biotin-peptide
# Method: as §1
row,Binder,EC50 [nM]
1,B5,35.2
2,B1,86.4
3,B2,8
4,B3,12.9
5,B4,8.5

# Biological target: T6, Peptide-41
# Assay: ELISA, Fab on captured biotin-peptide
# Method: as §1
row,Binder,EC50 [nM]
1,B5,102
2,B1,159
3,B2,28.9
4,B3,47.2
5,B4,41

# Biological target: T7, Peptide-64
# Assay: ELISA, Fab on captured biotin-peptide
# Method: as §1
row,Binder,EC50 [nM]
1,B5,28.3
2,B1,61.7
3,B2,3.8
4,B3,11
5,B4,6.4

# Biological target: T8, Peptide-39
# Assay: ELISA, Fab on captured biotin-peptide
# Method: as §1
row,Binder,EC50 [nM]
1,B5,95.2
2,B1,151
3,B2,16.4
4,B3,32.7
5,B4,32.1

# Biological target: T9, Peptide-32
# Assay: ELISA, Fab on captured biotin-peptide
# Method: as §1
row,Binder,EC50 [nM]
1,B5,34.6
2,B1,87.7
3,B2,35.1
4,B3,27.1
5,B4,20.1

# Biological target: T10, Peptide-33
# Assay: ELISA, Fab on captured biotin-peptide
# Method: as §1
row,Binder,EC50 [nM]
1,B5,29.7
2,B1,144
3,B2,24.1
4,B3,22.9
5,B4,9.6

# Biological target: T11, Peptide-63
# Assay: ELISA, Fab on captured biotin-peptide
# Method: as §1
row,Binder,EC50 [nM]
1,B5,162
2,B1,229
3,B2,30
4,B3,39.7
5,B4,9.5

# Biological target: T12, Peptide-36
# Assay: ELISA, Fab on captured biotin-peptide
# Method: as §1
row,Binder,EC50 [nM]
1,B5,41.4
2,B1,60.1
3,B2,30.2
4,B3,27
5,B4,23.8

# Biological target: T13, Peptide-62
# Assay: ELISA, Fab on captured biotin-peptide
# Method: as §1
row,Binder,EC50 [nM]
1,B5,81.4
2,B1,136
3,B2,9.2
4,B3,14.3
5,B4,5.1

# Biological target: T14, Peptide-38
# Assay: ELISA, Fab on captured biotin-peptide
# Method: as §1
row,Binder,EC50 [nM]
1,B5,178
2,B1,290
3,B2,31.8
4,B3,26.1
5,B4,9.8

# Biological target: T15, Peptide-25
# Assay: ELISA, Fab on captured biotin-peptide
# Method: as §1
row,Binder,EC50 [nM]
1,B5,217
2,B2,35
3,B3,42.3
4,B4,10.9

# Biological target: T16, Peptide-43
# Assay: ELISA, Fab on captured biotin-peptide
# Method: as §1
row,Binder,EC50 [nM]
1,B5,27.5
2,B1,77.5
3,B2,4.9
4,B3,12
5,B4,7.2

# Biological target: T17, Peptide-3
# Assay: ELISA, Fab on captured biotin-peptide
# Method: as §1
row,Binder,EC50 [nM]
1,B5,164
2,B1,296
3,B2,23
4,B3,30.8
5,B4,18.3

# Biological target: T18, Peptide-37
# Assay: ELISA, Fab on captured biotin-peptide
# Method: as §1
row,Binder,EC50 [nM]
1,B5,31.7
2,B1,149
3,B2,19.5
4,B3,27.3
5,B4,9.3

# Biological target: T19, Peptide-54
# Assay: ELISA, Fab on captured biotin-peptide
# Method: as §1
row,Binder,EC50 [nM]
1,B5,63.5
2,B1,147
3,B4,30

# Biological target: T20, Peptide-48
# Assay: ELISA, Fab on captured biotin-peptide
# Method: as §1
row,Binder,EC50 [nM]
1,B5,21.5
2,B1,42.4
3,B4,12.2

# Biological target: T5, Peptide-8
# Assay: ELISA, Fab on captured biotin-peptide
# Remark: another data set of the same source
# Method: as §1
row,Binder,EC50 [nM]
1,B5,55.6
2,B1,319
3,B4,12.2

# Biological target: T21, Peptide-47
# Assay: ELISA, Fab on captured biotin-peptide
# Method: as §1
row,Binder,EC50 [nM]
1,B5,113
2,B1,304
3,B4,79.9

# Biological target: T22, Peptide-50
# Assay: ELISA, Fab on captured biotin-peptide
# Method: as §1
row,Binder,EC50 [nM]
1,B5,96.2
2,B1,35.5
3,B4,21.9

# Biological target: T23, Peptide-55
# Assay: ELISA, Fab on captured biotin-peptide
# Method: as §1
row,Binder,EC50 [nM]
1,B5,15.7
2,B1,36.8
3,B4,6.1

# Biological target: T24, Peptide-56
# Assay: ELISA, Fab on captured biotin-peptide
# Method: as §1
row,Binder,EC50 [nM]
1,B5,52.8
2,B1,127
3,B4,33.3

# Biological target: T16, Peptide-43
# Assay: ELISA, Fab on captured biotin-peptide
# Remark: another data set of the same source
# Method: as §1
row,Binder,EC50 [nM]
1,B5,28.6
2,B1,43.6
3,B4,5.3

# Biological target: T17, Peptide-3
# Assay: ELISA, Fab on captured biotin-peptide
# Remark: another data set of the same source
# Method: as §1
row,Binder,EC50 [nM]
1,B5,91.5
2,B1,296
3,B4,12.5

# Biological target: T25, Peptide-49
# Assay: ELISA, Fab on captured biotin-peptide
# Method: as §1
row,Binder,EC50 [nM]
1,B5,296
2,B1,130
3,B4,18.3

# Biological target: T26, Peptide-45
# Assay: ELISA, Fab on captured biotin-peptide
# Method: as §1
row,Binder,EC50 [nM]
1,B5,50.8
2,B1,138
3,B4,32.6

# Biological target: T27, Peptide-59
# Assay: ELISA, Fab on captured biotin-peptide
# Method: as §1
row,Binder,EC50 [nM]
1,B5,61.1
2,B1,92.8
3,B4,5.4
